Laboratory results taken from article PMC10647799.

Legend:
[1] = molecular target: Asterias forbesii ferritin (AfFer) (Asterias forbesii); assay: native gel or EMSA; native-PAGE and SDS-PAGE of purified AfFer; subunits to the 24-mer cage
[2] = molecular target: Asterias forbesii ferritin (AfFer) (Asterias forbesii); assay: crystal structure; hanging drop vapour diffusion, 20 °C, 12.0 µM ferritin in 5.0 mM Tris-HCl; crystals with body-centered tetragonal (BCT) lattice; subunits in the 24-mer cage and cage to cage contacts

stoichiometry N [1]: 24
stoichiometry N [2]: 24
Substance: Asterias forbesii ferritin (AfFer) (natural protein)
